Experimental findings from patent publication US20080181901A1 are described below.

In the assay the target is endogenous Na,K-ATPase of tsA201 cells. The assay is described as follows: cell-based or functional assay.

“full-length MONaKA transfected into tsA201 cells (86Rb+ uptake assay)” returned a decrease in endogenous ouabain-sensitive 86Rb+ uptake into intact tsA201 cells of 19%.
